Laboratory results taken from paper PMC5416850 (Nucleic Acids Research, 2017).

Tests used:
[1] = biological target: the molecule itself; experiment: crystal structure
[2] = biological target: the molecule itself; experiment: SAXS
[3] = biological target: T1, Vibrio cholerae HigB2 toxin (Vibrio cholerae, UniProt Q9KMA6); experiment: ITC
T1 sequence: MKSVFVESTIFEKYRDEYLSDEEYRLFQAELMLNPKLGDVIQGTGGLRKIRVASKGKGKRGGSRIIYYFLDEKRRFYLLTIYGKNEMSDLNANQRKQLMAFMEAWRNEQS

[4] = biological target: Vibrio cholerae HigB2 toxin (Vibrio cholerae, UniProt Q9KMA6); experiment: crystal structure

B1: C-terminal domain of VcHigA2 (residues 38-104) (domain or fragment)
chain: LNISPDEIVSIREQFNMSRGVFARLLHTSSRTLENWEQGRSVPNGQAVTLLKLVQRHPETLSHIAEL
Question: Does B1 bind [1]?
Answer: Result: binds

B2: Vibrio cholerae HigA2 antitoxin, full length (natural protein)
chain: MSNRDLFAELSSALVEAKQHSEGKLTLKTHHVNDVGELNISPDEIVSIREQFNMSRGVFARLLHTSSRTLENWEQGRSVPNGQAVTLLKLVQRHPETLSHIAEL
Question: Which results are given for B2?
Answer: stoichiometry N [2]: 2; dH [3]: -111 ± 3.77 kJ/mol

B3: nanobody Nb6 (VHH)
VHH: QVQLQESGGGLVQPGGSLRLSCAASGFTFSNYAMRWYRQAPGEEREFVAFISSVGGSTNYADSVKGRFTISRDNGKNTLYLQMNSLKPEDTAVYFCVARLSLISDSWGQGTQVTVSS
Question: Does B3 bind [4]?
Answer: Result: binds

Question: Does NRDLFAELSSALVEAKQHSEW [VcHigA2_(3-22) peptide] bind [3]?
Answer: Result: binds

B4: nanobody Nb2 (VHH)
VHH: QVQLQESGGGLVQPGGSLRLSCAASGFTLDYYAIGWFRQAPGKEREGVSCISSSGGTTNYADSVKGRFTVSRDNAKNTVYLQMNSLKPEDTAVYYCVADFACPLIREYDYWGQGTQVTVSS
Question: Does B4 bind [4]?
Answer: Result: binds
